Data taken from paper PMC9870903, “Structural mechanism of BRD4-NUT and p300 bipartite interaction in propagating aberrant gene transcription in chromatin in NUT carcinoma” (Nature Communications, 2023).
Like-named read-outs stand apart in the source and are kept apart here. Blank lines part the entries; values can stand above or below the molecule they belong to.

Assays:
[1] = target: p300 TAZ2 domain (residues 1723–1812) (UniProt Q09472); test: NMR titration; 1H-15N HSQC of 15N-TAZ2 (50 μM); NUT fragment or peptide titrated from 7.8 μM to 1000 μM; 200 mM phosphate buffer pH 6.3; overlays at TAZ2/NUT molar ratio 1:3; single-site binding model
[2] = target: the molecule itself; test: SEC; Superdex 200 Increase 10/300 GL in PBS, 0.3 ml/min; samples 0.8 mM; MBP-TAZ2/His-F1c in 1:1 mix ratio; calibrated with protein standards
[3] = target: p300 TAZ2 domain (residues 1723–1812) (UniProt Q09472); test: NMR titration; 1H-15N HSQC of 15N-TAZ2 (50 μM); NUT fragment or peptide titrated from 7.8 μM to 1000 μM; 200 mM phosphate buffer pH 6.3; overlays at TAZ2/NUT molar ratio 1:3; single-site binding model; remark: listed apart in the source

Kd [1]: 36 µM
Molecule: NUT fragment of residues 419–470 (as added in NMR) (from UniProt Q86Y26 419-470) (domain or fragment)

Kd [1]: 32 µM
Molecule: NUT fragment of residues 377–418 (as added in NMR) (from UniProt Q86Y26 377-418) (domain or fragment)

B1: His-F1c (residues 346–592) (domain or fragment, UniProt Q86Y26 346-592, looked up)
chain: RRQRKAQRPPAPEAPKEIPPEAVKEYVDIMEWLVGTHLATGESDGKQEEEGQQQEEEGMYPDPGLLSYINELCSQKVFVSKVEAVIHPQFLADLLSPEKQRDPLALIEELEQEEGLTLAQLVQKRLMALEEEEDAEAPPSFSGAQLDSSPSGSVEDEDGDGRLRPSPGLQGAGGAACLGKVSSSGKRAREVHGGQEQALDSPRGMHRDGNTLPSPSSWDLQPELAAPQGTPGPLGVERRGSGKVINQ
notes: also called free His-F1c; source: purified; not shown: His, N-terminal, kept
stoichiometry N [2]: 5

Kd [3]: 115 µM
Molecule: GMYPDPGLLSYINELC [F1c peptide (residues 403–418)]

Kd [3]: 958 µM
Molecule: FLADLLSPEKQRDPLALIEE [F1c peptide (residues 435–454)]
